Experimental data taken from the nanobody polyreactivity screen of Harvey et al. (2022).

Experiment: yeast display, Sf9 membrane polyspecificity reagent, FACS + sequencing; frameworks hold sequencing errors
Method in brief: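 Galactose induction of a Saccharomyces cerevisiae BJ5465 synthetic nanobody display library ran 36–48 hours. The cells were then stained for 1 hour at 4 °C with 10% biotinylated, detergent-solubilized Sf9 membrane reagent, pulled down on streptavidin microbeads and FACS-sorted into low and high (top ~1%) gates on expression and reagent-binding fluorescence. Labels for polyreactivity follow the gate of origin.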

Row | Sequence | polyreactivity (PSR sort gate)
1 | QVQLVESGGGLVQAGGSLRLSCAASGSTFRLYAMGWYRQAPGKERELVAAISSGGTTKYADSVKGRFTISRDNAKNTVYLQMNSLKPEDTAVYYCNRRARSYADDYWGQGTQVTVSS | high polyreactivity
2 | QVQLVESGGGLVQAGGSLRLSCAACGFIFYYNAMGWYRQAHGKVRELVAAISSSAGSTYYADSVKGRFTISRDNAKNTVYLQMNSLKPEDTAVYDCAASRPPNTSNTGYGSWGQGTQVTVSS | low polyreactivity
3 | QVQLVESGGGLVQAGGSLRLSCAASGRTFWYYTMGWYRQAPGKERELVASITYRGGSTYYADSVKGRFTISRDNAKNNVYLQMNSLKPEDTAVYYCNARYKRYSYDYWGQGTQVTVSS | high polyreactivity
4 | QVQLVESGGCLVQAGGSLRLSCAASGRIFYIYAMGWYRQAPGKERELVAAITNGGSTNYADSVKGRFTISRDNAKNTVYLQMNSLKPEDTAVYYCAASVGTYAYGRTVYRYDYWGQGTQVTVSS | low polyreactivity
5 | QVQLVESGGGLVQAGGSLSLSSDASGSPLFSDAMGWYRQAPGKEREFVAAISRRGRSTYYADSVKGRFTISRDNAKNSVYFQMNSLIPEDTAVYYCAARDSSYNWYGYWGQGTQVTVSS | high polyreactivity
6 | QVQLVESGGGLVQAGGSLRLSCAASGRTFYLYTMGWYIQAPGKERELVAAISRGGRTYADSVKGRFTISRDNAKNTVYLQMNSLKPEDTAVYYCAAESVYHGWSYQHGKGDYWGQGTQVTVSS | low polyreactivity
7 | QVQLEESGGGLVQAGGSLRLSCAASGSIFYYNAMGWYRQAPGTERELVAAIRRSGGRTYYADSVKGRFTISRDNAKNSVYLQMNSLKPEDTAVYYCAAVHYDRVTCQVDNDYWGQGTQVTVSS | high polyreactivity
8 | QVQLVESGGGLVQAGGSLRLSCAASGSTLYGYAMGWYRQAPGKVRELVAAISSRAVRTYYADSVKGRFTISRDNAKNTVYLHMNSLKPEDTAVYYCAAKRSYAYEYWGQGTQVTVSS | high polyreactivity
9 | QVQLVESGGGLVQAGGSLRLSCAASGSIFFAYSMGWYRQAPGKERELVAAISWSDGSTYYADSVKGRFTISRDNAKNTVYLQMNSLKPEDTAVYYCDKVYRSIGPNVSRYGLSYYYWGQCTQVTVSS | low polyreactivity
10 | QVQLVESGGGLVQAGGSLRLSCAASGSTFKAYVMGWYRQEPAKERELVAVISRSGGTTYYADSVKGRFTISRDNAKNTVYLQMNSLKPEDTAVYYCAAQWRYQYPESLESYYWGQGTQGTVSS | high polyreactivity
11 | QVHLVESGGGLVQAGGSLRLSCAASGITFKRYAMGWYRQAPGKERELVAAISDIGGRTYYADSVKGRFTISRDNAKNTVYLQMNSLKPEDTAGYFCAADYYSPVDWYYYWGQGTQVTVSS | high polyreactivity
12 | QVQLQESGGGLVQAGGSLRLSCAARGNIFLGDTMGWYRQAPGKEREFVAGIARGGNPYYADSVKGRFTISRNNAKNTVYLQKNSLKPVDTAVHYCAVQRSHASDYNYWGQGTQVTVSS | low polyreactivity
13 | QVQLVESWGGLVQAGGRLRLSCAASGNTFWDNAMRWYRQAPGKERELVAAIRWSTVSTHYADSVKGRFTISRDNAKNTVYLQMNSLKPEDTAVYDCAATAYYYYRDKYYGYDYWGQGTHVTVSS | low polyreactivity
14 | QVRLVESGGGLVQAGGSLRLSCAASARILPYYPMGWYRQAPGKERELVAAISWSGGRTYYADSVKGRFTISRDNAKNTVYLQMNSLKPEDTAVYYWATRRVTHVPGSSRYDYWGQGTQVTVSS | low polyreactivity
15 | RVHLVESGGGLVQAGGSLRLSCAASGRIFDNYVMGWYRQAPGKESELVAAISSGGGTYYADSVKGRFTISRDNAKNTVYLQMKSLKPEDTAVYFCAKRRVFDRSFGRYDYWGQGTQVTVSS | low polyreactivity
16 | QVQLVESGGGLVQAGGSLRLSCAASGSIFGSYAMGWSRQAPGKERELVAAISKSGGNTYYADSVKGRFTISRDNAKNTVYLQMNSLKPEDTAVYYCAAYGFYRWRGYDYWGQGTQVTVSS | high polyreactivity
17 | QVQLVESGGGLVQAGGSLRLSCAASGRIFNRYAMGWYRQAPGKERELVAAISSRGGSTFYADSVKGRFTISRDIAKNTVYLQMNSLKPVDTAVYYCATAWHRGVRGRTSGAFDYWGQGTQVTVSS | high polyreactivity
18 | QVQLVESGGGLVQAGGSLRLSCAASGHIFFYYTMGWYRQAPGKERELVAGITIGGSTNYADSVKGRFTISRDNAKNTVYLQMNSLKPEVTAVYYCARTVYGARSYDYWGQCTQVTVSS | low polyreactivity
19 | QVQLQESGGGLVQAGGSLRLSCAASGTISTDSYMGWYRQAPGKERKFVATIGYGGITYYADSVKGRSTISRDSAKNTVYLQMNSLKPEDTAVYYCAVNSYYPDHYWYWGRGTQVTVSS | high polyreactivity
20 | QVHLEESGGGLVQAGGSLRLSCAASGIIFHFNDRGWYRQATGKERELVAAITSGGSTNYADSVKGRFTISRDNAKNTVYLQMNSLKPEDTAVYYCAARRCLRLFAYRHGYWGQGTQVTVSS | low polyreactivity
21 | QVQLVESGGGLVQAGGSLRLICAASGNIFYRYAMGWYRQAPGKERELVAAISGNSGNTYYADSVKGRFTISRDNAKNTVYLQMNSLKPEDTAVYYCNARVVVRRDYWGQGTQVTVSS | high polyreactivity
22 | QVQLVESGGGLVQAGGSLRLSCAGSGSTFRSNAMGWYRQAPGKERELVAAISQRGGSTYYADSVKGRFTISRDNAKNTVYLQMNSLKPEDTAVYYCAARLYRGWRPFYYWGQGTQVSVSS | high polyreactivity

Row | Sequence | polyreactivity (PSR sort gate)
23 | QVQLVESGGGLVQAGGSLRLSCAASGRIFGRYAMGSYRQAPGKERELVAGINSGSTSYADSVRGRFTISRDNAKNTVYLQMNSLKPEDTAVYYCARGPRYRGGWDTFRGFDYWGQGTQVTVSS | low polyreactivity
24 | QVQLVESGGGLVQAGGSLRLSCAASGRIFDPNVMVRYRTAPGKERELVAAIRTSGGRTYYADSVKGRFTISRDNAKNTVYLQMNSLKPEDTAVYYCAALYKGKYDYWGQGTQVNVSS | high polyreactivity
25 | QVQLVESGGGLVQAGGSLRLSCAASGRTFGIYAMGWYRQAPGKERELVAAITWSGDSTYYADSVKGRFTISRDNAKNTVYLQMNSLKPEDTAVYYCAADYFGVTSVRYDYWGQGTQVTVSS | low polyreactivity
26 | QVQLVESGGGLVQAGGSLRLSCAASGSTFSGNAMGWYRQAPGKERELVAGIRQSGDSTYYADSVKGRFTISRDNAKNTVYLQMNSLKPEDTAVYDCNARAFPFGTGVQGFGFGYWGQGTQVTVSS | low polyreactivity
27 | QVQLVESGGGLVQAGGSLRLSCAASGSTFKYYAMGWYRQAPGKERELVAAISRRGGSTYYADSVKGRFTISRDNAKNTVYLQMNSLKPEDTAVYYCAARLPGYYGIGDYWGQGTQVTVSS | high polyreactivity
28 | QVQLVETGGGLFQAGVSLRLSCAASGSTFDGYVMGWYRQAPGKERELVAAISGSGGSTYYADSVKGRFTISRDHAQNTDYLQMISLKPEDTAVYYCAADSWWYDDYSEGDYWGQGTQVTVSS | low polyreactivity
29 | QDQLVESGGGLVQAGGSLRLSCAASGFTFSYYTMGWYRHAPGKERELVAAISSTGVSTYYADSVKGRFTISRDNAKNTVYLQMNSLKPEDTAVYYCAADYYGVYEYYYWGQGTQVTVSS | high polyreactivity
30 | QVQLVESGGGLVQAGGSLRLSCAPSGSIFGVYAMGWYRQAPGKERELVAAISSRGSSTYYADSVKGRFTISRDNAKNTVYLQMNSLKPEDTAVYYCAARPGIRSYPPGYGYWGQGTQVTVSS | high polyreactivity
31 | QDQLVESGGGLVQAGGSLRLSCAASGITFNAYVMGWYRQAPGKERELVAAISVSDDYTYYADSVKGRFTISRDNAKNTVYLQINSLKPEDTAVYYCAAEWWDVIAPYDYWGQGTQVTVSS | low polyreactivity
32 | QVQLVESGGGLVQAGGSLRLSCAASGSIFKYYVMGWYRQAPGKERELVAAITRGGRTYYADSVKGRFTISRDNAKNTVYLQMNSLKPEDTAVYYCARSLQTTSGIIPYDYWGQGTQVTVSS | high polyreactivity
33 | QVQLVDSGGGLVQAGGTLRLSCAASGRTFSSYAMGWYIQAPGKERELVSAISWSGGITYYADSVKVRFTISRDNAKNTVYLQMNSLKPEDTAVYYCAVALTRRKSYEYSGGFWGQGTQVTVSS | high polyreactivity
34 | QDQLVESVGGLVQAGGSLRLSCAASGITFYYSAMGWDRQAPGKERELVAAISFRGGSTYYADSVKGRFTSSRDNAKNTVYLQMNSLKPEDTAVYYCAAETSPSWYTWVTYDYWGQGTQVTVSS | high polyreactivity
35 | QVQLVESGGRLVQAGGSLRLSCAPSGFIFRFNAMGWYRQPPGKVSELVARIDWSGGSTYYADSVKGRFTISRENAKYTVYFQMNSLKPEDTAVYYCAAERYFEYSECDYWGQGTQVTVSS | low polyreactivity
36 | QVQLVDSGGGLVHAGGSLRLSCASSGSIFNYYAMGCYRQPPGKVRELVAAISYRTGSTYYADSVKGRFTISRDNAKNTVYLQMTSLKPEDTSVYYCAADTRYGYGYWGQGTQVTVSS | high polyreactivity
37 | QVQLVETGGGLVQAGGSLRLSCAASGPTFYANAKGWYRQAPGKERELVAVISWGSGSTYYADSVKGRFTISRDNAKNTVYLQMNSLKPEDTAVYYCAKSFYYEGTGDYWGQGTQVTVSS | low polyreactivity
38 | QVQLVESGGGLVQAGGSLRLSCAASGITFKLNAMGWYRQAPGKERELVAAISYNGVRTYYADSVKGRFTISRDNAKNTVYLQMNRLKPEDTAVYYCAALLRGQDRTMDYWGQGTQVTVSS | high polyreactivity
39 | QVQLVESGGGLVQAGGSLRLSCAASGFTFDYYAMGWYRQAPGKERELVAAITRSGTRTYYADSVKGRFTISRDNAKNTVYLQMNSLKPEDTAVYYCNVEYPKRANLSDYWGQGTQVTVSS | high polyreactivity
40 | QVQLVHSGGGLVQAGGILRLSCAASGYTFGYYTRGWYRQAPGKERELVASIDSGGGTNYADSVKGRFSISRDNAKKTVYLQMNSLKPEDNAVYYCAAESPLYWVEDFESGWRFYYCGQGTQVTVSS | low polyreactivity
41 | QVQLVDSGGGLVHAGGSLRLSCAASGSIFGANTMGWYRPAPGKERELVAGITSRARTYYADSVKGRFTISRDNANNNVYLQMNSLKPEDTAVYYCAAKYAWRRYGYWGQGTQVTVSS | high polyreactivity
42 | QVKLVESGGGLVQAGGSLRLSCAASGFTFISNAMGWYRQAPGKERELVAAISSSGGRTYYADSVKGRFTISRDNAKNTVYLQMNSLKPEDTAVYYCNADRSLLYSRKIEYDYWGQGTQVTVSS | low polyreactivity
43 | QVQLVESGGGLVQAGGSLRLSCAASGRTFDLNVMGWSRQAPGKERELVAASSFSGGSTYYADSVKGRFTLSRDNAKNTVYLQMNSLKPEDTAVYYCAADGYVRPPEMDYWGQGTQVTVSS | high polyreactivity
